In publication PMC3445539:
Values belong to the substance of their own block, whether it stands above or below them.

Experiments:
[1] = target: mCherry-CENP-O (human) (UniProt Q9BU64); experiment: FRET or BRET; FLIM: donor fluorescence lifetime by time-correlated single photon counting at kinetochores of living HEp-2 cells, EGFP donor and mCherry acceptor
[2] = target: mCherry-CENP-P (UniProt Q6IPU0); experiment: as above
[3] = target: mCherry-CENP-P (UniProt Q6IPU0); experiment: fluorescence cross-correlation spectroscopy (FCCS); nucleoplasm free of kinetochores in living double-transfected U2OS cells, EGFP and mCherry fusions, 37°C

Sequence of UniProt Q9BU64 (Q9BU64 whole entry): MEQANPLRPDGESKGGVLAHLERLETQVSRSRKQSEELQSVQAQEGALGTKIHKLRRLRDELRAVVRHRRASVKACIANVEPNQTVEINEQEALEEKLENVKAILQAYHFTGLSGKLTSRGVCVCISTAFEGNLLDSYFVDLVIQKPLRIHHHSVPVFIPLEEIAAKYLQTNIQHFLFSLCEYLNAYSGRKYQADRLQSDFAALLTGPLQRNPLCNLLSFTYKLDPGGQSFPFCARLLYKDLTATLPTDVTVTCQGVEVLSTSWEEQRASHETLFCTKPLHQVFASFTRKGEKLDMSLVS

donor fluorescence lifetime in the presence of the acceptor [1]: 2.16 nsec
Substance: CENP-P-EGFP (from UniProt Q6IPU0 1-288) (natural protein)

donor fluorescence lifetime in the presence of the acceptor [2]: 2.08 nsec
Substance: CENP-Q-EGFP (from UniProt Q7L2Z9 1-268) (natural protein)

Substance: EGFP-CENP-O
percent hetero-dimers, the authors' corrected estimate ([3]; other: fluorescence cross-correlation spectroscopy (FCCS)): we estimate 40–60%

percent hetero-dimers, A(CC)/A(AC) [3]: 20 to 30%
percent of the molecules co-migrating (cross-correlation amplitude over mCherry amplitude) [3]: 29%
Substance: EGFP-CENP-O (from UniProt Q9BU64 1-300) (natural protein)
